Our source for the MIC and stoichiometry N values is paper PMC5772480, “Galectin-13, a different prototype galectin, does not bind β-galacto-sides and forms dimers via intermolecular disulfide bridges between Cys-136 and Cys-138” (Scientific Reports, 2018).

Values after ≈ are worked out from the molar mass of the structure shown.

Assay [1] addresses T1, Gal-13 (galectin-13, placental protein 13, PP13) (Homo sapiens, UniProt Q9UHV8, R53H).
T1 construct: gene LGALS13; full length 1-139, synthetic gene in pET28a, E. coli BL21(DE3); N-terminal His tag removed by thrombin; disulfide-linked homodimer
T1 sequence (Q9UHV8 1-139 R53H): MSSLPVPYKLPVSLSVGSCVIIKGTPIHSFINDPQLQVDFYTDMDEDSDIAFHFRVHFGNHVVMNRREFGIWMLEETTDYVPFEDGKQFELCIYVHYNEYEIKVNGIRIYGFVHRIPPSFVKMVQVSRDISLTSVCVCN
Put plainly: inhibition of hemagglutination of chicken erythrocytes. Type of assay: cell-based. The conditions noted are these: pH 7.4 PBS, on ice; minimum inhibition concentration. The text has this: inhibition of hemagglutination of chicken erythrocytes on Gal-13 (galectin-13, placental protein 13, PP13) | maltose and arabinose could inhibit the biological activity of […]

For assay [2], the target named is T2, Galectin-13 (wild type) (human), Q9UHV8.
T2 chain: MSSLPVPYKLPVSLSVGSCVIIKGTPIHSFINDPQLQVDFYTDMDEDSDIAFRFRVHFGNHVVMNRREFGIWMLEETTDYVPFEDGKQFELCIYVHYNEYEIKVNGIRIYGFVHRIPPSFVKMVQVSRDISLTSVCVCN
Put plainly: native gel or EMSA; native PAGE, 15% separating gel, Tris-glycine buffer, 5 μg protein per lane, 90 V for 3 h; migration compared with Gal-1 (dimer) and C136S/C138S (monomer). To be noted: remark: other sources report otherwise.

The target is the same in assay [3]. Put plainly: SEC; Superdex 75 10/300, PBS pH 7.4, 25 °C, 100 μg protein loaded, 0.5 ml/min; apparent molecular weights from a standard curve; Gal-13 also run in the presence of 10 mM DTT (mostly monomer, small amount of dimer). To be noted: remark: other sources report otherwise. On the technique in general: Size exclusion chromatography separates by hydrodynamic size, large species first.

Assay [4] shares this target. Put plainly: non-reducing SDS-PAGE; SDS-PAGE of Gal-13 with or without DTT reduction; dimer band at approximately 38 kDa without DTT. To be noted: remark: other sources report otherwise.

In turn, `OC1OC[C@H](O)[C@H](O)[C@H]1O` (some centres unmarked) [arabinose] had an MIC in assay [1] of 200 mM (≈ 30 mg/mL).

As for `OC[C@H]1O[C@H](O[C@H]2[C@H](O)[C@@H](O)C(O)O[C@@H]2CO)[C@H](O)[C@@H](O)[C@@H]1O` (some centres unmarked) [maltose], the MIC in assay [1] is 12.5 mM (≈ 4.28 mg/mL).

B1: Galectin-13 (wild type), Q9UHV8 1-139 (natural protein)
chain: MSSLPVPYKLPVSLSVGSCVIIKGTPIHSFINDPQLQVDFYTDMDEDSDIAFRFRVHFGNHVVMNRREFGIWMLEETTDYVPFEDGKQFELCIYVHYNEYEIKVNGIRIYGFVHRIPPSFVKMVQVSRDISLTSVCVCN
modifications: here or on the partner: intermolecular disulfide bonds Cys136-Cys138' and Cys138-Cys136' in the dimer; intermolecular disulfide bonds Cys136-Cys138' and Cys138-Cys136' in the dimer
In the case of B1, the stoichiometry N in assay [2], in assay [3] and in assay [4] was 2 in each case.

A word on the stoichiometry N: it is a count of units in the complex or per binding partner.
